Paper PMC2758704, “Human Papillomavirus-16 E7 Interacts with Glutathione S-Transferase P1 and Enhances Its Role in Cell Survival” (PLoS ONE, 2009)
Ends that are not written are not given here.

Molecular target: T1, N-6His-GSTP1 recombinant protein (human, UniProt P09211 1-210)
T1 construct: human GSTP1, ORF made by RT-PCR from HaCaT RNA, cloned through pDONR201 into pDEST17; The printed forward primer begins at the codons for Pro-Pro-Tyr-Thr (residue 2, without the first Met) and the reverse primer holds the stop codon; Gateway attB1 linker residues lie between the His tag and GSTP1; also called recombinant GSTP1; not shown: His6, N-terminal, kept
T1 sequence (P09211 whole entry): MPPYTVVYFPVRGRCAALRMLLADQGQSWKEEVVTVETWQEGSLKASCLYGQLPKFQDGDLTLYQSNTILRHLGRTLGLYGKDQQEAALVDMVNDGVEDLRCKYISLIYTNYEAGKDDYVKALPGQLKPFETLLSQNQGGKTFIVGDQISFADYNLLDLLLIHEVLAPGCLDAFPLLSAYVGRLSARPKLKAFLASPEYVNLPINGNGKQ
Test: peptide or protein array; PepSets: 30 rod-bound 12-mers of HPV-16 E7 with a 9 amino acid overlap; recombinant GSTP1 captured by each rod detected by an immunoenzyme assay with an anti-GSTP1 polyclonal antibody
Settings: both partners purified

Binder | binding result
GIVCPICSQKPG (cysteine pairing not given here; also: bound to a polypropylene rod, residues 88-98 (the C-terminus) of the E7 oncoprotein of HPV-16; a Gly added to the last C-terminal HPV-16 E7 amino acid to complete the 12-mer; The text names the region aa 89–98 in one place and 88–98 in others; also called C-terminal 88–98 peptide; C-terminal portion (aa 89–98); source: synthetic peptide, on polypropylene rods (PepSets, Mimotopes)) [HPV-16 E7 C-terminal 12-mer peptide (30th rod, amino acids 88–99 with an added Gly)] | binds
RAHYNIVTFCCK (cysteine pairing not given here; also: bound to a polypropylene rod, residues 49-60 of the E7 oncoprotein of HPV-16; also called peptide 49–60; the 49–60 12-mer; source: synthetic peptide, on polypropylene rods (PepSets, Mimotopes)) [HPV-16 E7 12-mer peptide aa 49–60] | binds
